Laboratory results published in the supplement of paper PMC9170038.

Test system: MS2 coat protein
Experiment: apparent KD of MS2 coat protein; designed switch direction (-1 OFF switch, 1 ON switch): -1; higher = weaker reporter binding
Method in brief: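 Each step of the titration lasted 0.8–1.5 h at the lowest concentration and 10–20 min at the highest. The protein, SNAP-549-labelled MS2 coat protein, went from 0.7 or 1.5 nM doubling to 3 µM over RNA switches transcribed on Illumina chips by stalled E. coli RNA polymerase. Normalised cluster fluorescence was curve-fitted, and the per-design median over clusters is given as apparent KD.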

[1] = input ligand: microRNA oligo, concentration not stated
[2] = Eterna round: R95, input ligand: FMN 200 uM
[3] = Eterna round: R95, input ligand: microRNA oligo, concentration not stated
[4] = Eterna round: R95, input ligand: none

| Sequence | apparent KD of MS2 coat protein (input ligand: FMN 200 uM) | apparent KD of MS2 coat protein (input ligand: none) | apparent KD of MS2 coat protein [1] | apparent KD of MS2 coat protein [2] | apparent KD of MS2 coat protein [3] | apparent KD of MS2 coat protein [4] |
| --- | --- | --- | --- | --- | --- | --- |
| UAUAUGUCAGGAUAUUAGUAGUAAAUGAAUAAAAUUAUUACUGAGAAGGGACAUGAGGAUCACCCAUGUGCCUU [Mat - Exclusion 4 - Eli Mod - D23] (Eterna round: R97, puzzle: Exclusion 4) | 20.6 nM | 16.6 nM | – | – | – | – |
| AAGGGUACUUUCAGAACGACAUGAGGAUCACCCAUGUAGACUGAGGAUAUCUGCUACUAAGGACGGGAGAAGGCAGUGUAAUGU [Ex NG3 #74] (Eterna round: R96, puzzle: Exclusion NG 3) | 10.6 nM | 14.2 nM | 11.1 nM | – | – | – |
| AAAUAAAACAAGCAAUAAAACAUGAGGAUCACCCAUGUAAAGGGUGAAGUUCGCACCCAAAAAUAAAAUAAAUAAAA [Denovo Take 6, 5] (Eterna round: R96, puzzle: Sensor v2, turn-off variant) | 22.1 nM | 25 nM | 39.6 nM | – | – | – |
| GAAUAUAAGCAAAGAUCCUACAUGAGGAUCACCCAUGUGCUCGUCUUAUAAAGUACUAUCACGAAAGUGAUAGUACA [Mat - Sensor v3 - turn-off var 1 - Eli Mod - D82] (puzzle: Sensor v3, turn-off variant 1) | – | – | – | 89.9 nM | 25.1 nM | 135 nM |
| GGUACUAACACGAAAGUGUUAGUACUGUAGGUUUGUGUUACAUGAGGAUCACCCAUGUCCUCAUAAGCUCGUCUUGU [JL-sv3-2.22 mat747 mod] (puzzle: Sensor v3, turn-off variant 2) | – | – | – | 306 nM | 246 nM | 347 nM |
| GCUUGUAGAGGAUAUACGAGGGCCCGAGCGGAUAACACCGCACAUGAGGAUCACCCAUGUAGAAGGCUACCACC [Riquinza] (Eterna round: R96, puzzle: Exclusion 2) | 331 nM | 27.9 nM | 19.1 nM | – | – | – |
| AUCCAGCGAGGAUAUACUUUGUUUUUUUCGUUUUGUCUCGAACAUGAGGAUCACCCAUGUAGAAGGUGCUUCAC [JR_Ex2_Sub005] (Eterna round: R97, puzzle: Exclusion 2) | 60.8 nM | 69.7 nM | – | – | – | – |
| UUUAAUUGUCACAUGGGUGACAUGAGGAUCACCCAUGUCACAAGCUUUUUGUUCGUCUUAUAAUUAACCCAUGUGAC [Stov1/12-B1] (Eterna round: R97, puzzle: Sensor, turn-off variant 1) | 13.9 nM | 13.1 nM | – | – | – | – |
| AGCCCUGGCGUCAGGAUAUCGAAACCGCAAAAGGACGAGAAGGGACAUGAGGAUCACCCAUGUAGUGAGUUAAA [Isedrecedi] (puzzle: Brourd's mod of Exclusion 4) | – | – | – | 35.6 nM | 34.5 nM | 39 nM |
| GAUUAUGCGAGCUUUAGGGACAUGAGGAUCACCCAUGUUCGUCUUAUUGAUCUAGGUGCACUAACAUACCUAAAUCU [JMF 34] (puzzle: Sensor v3, turn-off variant 1) | – | – | – | 24 nM | 41.2 nM | 27.7 nM |
| CCUAGACAUGAGGAUCACCCAUGUGAGGAUAUGAUGCGAUCGUCGAAAGACGAUAGCAUCAGAAGGCACAUAUG [Fiskers Ex 1 - 5] (puzzle: Exclusion 1) | – | – | – | – | 36.9 nM | – |
| AACAGAAAAGAAAUAAAUAACAUGAGGAUCACCCAUGUCAACGGGUAAGAGCUCAACGAGCUGCGAGUCUUACUCAA [Enreaerre] (Eterna round: R96, puzzle: Sensor v2, turn-off variant) | 25.7 nM | 24.7 nM | 17.5 nM | – | – | – |
| GCAGCUAAUGCAGGAUAUCAGCACGUUUAGUGCUGAGAAGGGCACAUGAGGAUCACCCAUGUGAUCAAUUAAUAUUAAUGCUGC [ENG1/11-B2] (Eterna round: R96, puzzle: Exclusion NG 1) | 152 nM | 31 nM | 23.1 nM | – | – | – |
| UAUUAGCAAGCGAGAUCCCACAUGAGGAUCACCCAUGUAAUAAAAGCAUCCAGAAUUACUGGGUGCGCUCGUCUUAU [Winner reversed engineered 14] (Eterna round: R97, puzzle: Sensor, turn-off variant 1) | 47.7 nM | 49.5 nM | – | – | – | – |
| UAAAAUUUAGGAUAUGCGUGAGAUAGAGUACGAUGAGCUGCACAUGAGGAUCACCCAUGUAGAAGGAAAUUUUA [-11, -8.6 kcal, 36% A] (Eterna round: R97, puzzle: Exclusion 2) | 58 nM | 31.2 nM | – | – | – | – |
| UAAGUGCUGCGAGGAUAUACAUGAGGAUCACCCAUGUGGAUGUCUGAGGCUUUGCCUCAGACGAUGUAGAAGGCGCAGUACAAU [Mat - Exclusion NG 2 - Mod of JL - D51] (Eterna round: R96, puzzle: Exclusion NG 2) | 77.3 nM | 20.6 nM | 11.1 nM | – | – | – |
| CCCUCACAUGAGGAUCACCCAUGUAAGGAUAUCUUCGCUUUGACGUUGUUGAAUGCGAAGAGAAGGUGCACGGC [jl-ex1-4.71 ViennaUCT mod] (Eterna round: R97, puzzle: Exclusion 1) | 43 nM | 20.9 nM | – | – | – | – |
| GCACGGAUGGUAGGAUAUCUGUGCGAUUAGCUCAGAGAAGGACCACAUGAGGAUCACCCAUGUACCUCAAUUAGCCUUCCGUGC [Eli exng1 - 019] (Eterna round: R96, puzzle: Exclusion NG 1) | 14.8 nM | 15.2 nM | 11.3 nM | – | – | – |
| AAUUAGCUAGGAUAUACAUGAGGAUCACCCAUGUCAGUUACAUGGCCGGGUGUAACGAGUAGAAGGAGCGCCAA [EX3 B.28] (Eterna round: R97, puzzle: Exclusion 3) | 175 nM | 513 nM | – | – | – | – |
| GAGUUAGCGUGUGGAAUAUACAUGAGGAUCACCCAUGUUAGCUUAUAUAUUGCUCGUCUUAUAACAACACUUAACUG [Mod JX-Electric-eye4] (Eterna round: R97, puzzle: Sensor, turn-off variant 1) | 42.7 nM | 45.8 nM | – | – | – | – |
| GCUUGUGGGCAAGGAUAUCCUACGCUGUUCUGGUUCGUGUCUGUCACAUGAGGAUCACCCAUGUGGGAGAAGGUGCCUUUGGUG [Design 63] (Eterna round: R96, puzzle: Exclusion NG 2) | 13.7 nM | 16.2 nM | 12.7 nM | – | – | – |
| UAUAUAUAGUAAGGAUAUGUAUUUAUGUUAUAAACAGAAGGUACUGACAUGAGGAUCACCCAUGUUUUAGUGUGGGCAUGUAGA [JMF's solution 16] (Eterna round: R96, puzzle: Exclusion NG 1) | – | – | 76.3 nM | – | – | – |
| GUGUACGGAGGAUAUAUAUGGGCAGGCUGACCUGCAGCUUCACAUGAGGAUCACCCAUGUAGAAGGCUGUACAC [Mat - Exclusion 2 - Mod of Hyphema - D98] (puzzle: Exclusion 2) | – | – | – | – | 33.2 nM | – |
| AGCAGACGAGGAUAUAAAUUUGAUAACAUGAGGAUCACCCAUGUGAUCGAUAGAUCAAAUUUAGAAGGUGUCUGCU [E5/7-B1] (Eterna round: R97, puzzle: Exclusion 5) | 512 nM | 490 nM | – | – | – | – |
| AUAAUGUCAGGAUAUCAGUCGACUAGCGAUAGCUAGUCGACUGAGAAGGGACAUGAGGAUCACCCAUGUGUUUC [E4/14-A4] (Eterna round: R97, puzzle: Exclusion 4) | 2.73 nM | 170 nM | – | – | – | – |
